# Measurements from patent US20070166317A1, “Microparticles” (priority 2003, published 2007).
# Experiments:
# [1] = target: T1, LDL receptor (Homo sapiens, UniProt P01130); assay: Effect of anti-LDL receptor antibody on cellular association of peptide modified latex, normal fluorescent microscopy, HFFF-2 cells; type: cell-based; conditions: 3 hours at 37° C., antibody 8 μg/mL, peptide on Sigma carboxylate modified latex, 0.15 μg latex/μL, FIG. 6
# T1 construct: endogenous in cells; host or cells: HFFF-2 fibroblast cells (ECACC 86031405)
# T1 sequence (P01130 22-860): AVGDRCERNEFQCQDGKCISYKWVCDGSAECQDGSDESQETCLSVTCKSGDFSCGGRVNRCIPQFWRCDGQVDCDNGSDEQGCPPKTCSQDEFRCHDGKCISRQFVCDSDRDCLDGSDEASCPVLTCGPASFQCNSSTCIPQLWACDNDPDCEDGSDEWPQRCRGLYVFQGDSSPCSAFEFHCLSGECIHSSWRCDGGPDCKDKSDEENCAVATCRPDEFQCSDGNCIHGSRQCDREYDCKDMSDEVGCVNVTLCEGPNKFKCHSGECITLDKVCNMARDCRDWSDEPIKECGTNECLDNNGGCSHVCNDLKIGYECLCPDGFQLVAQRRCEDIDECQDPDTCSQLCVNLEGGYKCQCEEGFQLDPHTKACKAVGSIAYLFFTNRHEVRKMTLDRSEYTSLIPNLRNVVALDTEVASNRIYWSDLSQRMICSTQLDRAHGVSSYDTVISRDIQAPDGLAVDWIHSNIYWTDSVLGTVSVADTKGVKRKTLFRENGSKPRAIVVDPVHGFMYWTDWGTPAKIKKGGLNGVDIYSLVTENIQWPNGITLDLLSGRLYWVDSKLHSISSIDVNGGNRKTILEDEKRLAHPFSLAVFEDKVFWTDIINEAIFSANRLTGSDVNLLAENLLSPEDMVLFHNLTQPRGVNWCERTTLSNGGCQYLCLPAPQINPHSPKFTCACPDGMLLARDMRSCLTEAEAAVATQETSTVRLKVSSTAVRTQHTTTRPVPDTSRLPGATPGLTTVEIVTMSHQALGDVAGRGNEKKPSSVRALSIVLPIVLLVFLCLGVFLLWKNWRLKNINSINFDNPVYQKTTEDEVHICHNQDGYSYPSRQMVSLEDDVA
# Procedure: (§1) Latex (50 to 100 μL) was added to PBS (890 to 945 μL) followed by peptide solution (5 to 10 μL) and the resultant 1 mL solution mixed. The material was left to stand at room temperature for 2 hours and then dialysed over night against 2 L of PBS in the dark at 4° C. The particles were then recovered stored at 4° C. in the dark and used without further treatment.
# (§2) HFFF2 stock culture was grown in Dulbecco's modified Eagle's media supplemented with 10% v/v foetal bovine serum, glutamine (2 mM), fungizone (50 mg/ml) and pen-strep (0.1 mg/ml). Cells were seeded at 2 to 3×10^4 cell/cm^2 using 0.25% trypsin-EDTA and maintained in a humidified 5% CO2 atmosphere, at 37° C. and sub-cultured twice a week.
# Prior (48 hr) to an experiment CHO or HFFF2 cells were plated at 2×10^4/cm^2 in an 8 well chamber slide, 0.7 cm^2 and 0.2 mL/chamber. One day before the experiment, media was replaced with a similar media but containing no lipids. On the date of the experiment, the cells for 4° C. incubation were chilled for 15 minutes prior to any additions. The wells were washed with 0.1 mL of phosphate buffered saline (PBS) and the synthetic LDL microparticle system, in media, added. The slides were then incubated for 1 or 3 hours at either 4° C. or 37° C. the latter in a humidified 5% CO2 atmosphere. […]
# [2] = tested on: CHO cells; assay: Cellular association of peptide modified latex microparticles, confocal microscopy, CHO cells; type: cell-based, Chinese Hamster; conditions: 3 hours at 37° C., 10 ng peptide/μg Sigma carboxylate modified latex, 0.15 μg latex/μL of media, FIG. 4
# Procedure: as §1
# as §2, with “CHO stock” for “HFFF2 stock”, “in Ham's F12” for “in Dulbecco's modified Eagle's”, “10%” for “10% v/v”, “at 1” for “at 2”, “to 2×10^4” for “to 3×10^4”
# (§3) Prior (48 hr) to an experiment CHO or HFFF2 cells were plated at 2×10^4/cm^2 in an 8 well chamber slide, 0.7 cm^2 and 0.2 mL/chamber. One day before the experiment, media was replaced with a similar media but containing no lipids. On the day of the experiment, the cells for 4° C. incubation were chilled for 15 minutes prior to any additions. The wells were washed with 0.1 mL of phosphate buffered saline (PBS) and the synthetic LDL system in media added. The slides were then incubated for 1 or 3 hours at either 4° C. or 37° C. the latter in a humidified 5% CO2 atmosphere. […] The lens employed was ×20 PA with a numerical aperture of 0.75 and the data analysed using “Laser-sharp” software (Bio-Rad).
# [3] = target: T1, LDL receptor; assay: Effect of anti-LDL receptor antibody on cellular association of peptide modified latex, confocal microscopy, HFFF-2 cells; type: cell-based; conditions: 3 hours at 37° C., antibody 8 μg/mL, peptide on Fluoresbrite latex, 0.15 μg latex/μL, FIG. 5
# Procedure: as §1, §2, §3
Substance,reduction of cellular association by anti-LDL receptor antibody (normal fluorescent microscopy) [1],"cellular association of peptide modified latex (rank order between peptides, fluorescence) [2]",reduction of cellular association by anti-LDL receptor antibody (confocal microscopy) [3]
peptide 3: Retinoic Acid-Tyr-Lys-Leu-Glu-Gly-Thr-Thr-Arg-Leu-Thr-Arg-Lys-Arg-Gly-Leu-Lys-Leu-Ala-Thr-Ala-Leu-Ser-Cholesterol ({retinoic acid}-YKLEGTTRLTRKRGLKLATALS-cholesterol),the reduction due to the presence of the antibody is clearly visible,increased cellular association for peptide 4 followed by peptide 3 and then peptide 1,–
peptide 4: Pyrene Butyric Acid-Lys-Leu-Glu-Gly-Thr-Thr-Arg-Leu-Thr-Arg-Lys-Arg-Gly-Leu-Lys-Leu-Ala-Thr-Ala-Leu-Ser-Leu-Phe-Leu-Phe-Cholesterol ({pyrene butyric acid}-KLEGTTRLTRKRGLKLATALSLFLF-cholesterol),–,increased cellular association for peptide 4 followed by peptide 3 and then peptide 1,the reduction is not as great
